Source: patent US7193044

Legend:
[1] = test system: GST-BAD S112A [GST: P08515]
[2] = test system: T1, Full-length BAD (wildtype), in vitro translated, 35S-methionine labelled, buffer control
T1 sequence: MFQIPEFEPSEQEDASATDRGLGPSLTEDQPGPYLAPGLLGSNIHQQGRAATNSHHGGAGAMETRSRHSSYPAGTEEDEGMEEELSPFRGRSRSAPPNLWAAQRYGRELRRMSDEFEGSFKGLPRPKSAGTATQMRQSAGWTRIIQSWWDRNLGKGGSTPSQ

[3] = test system: GST-BAD S112A/S136A/S155A
[4] = test system: T2, GST-BAD (GST-tagged shorter murine BAD)
T2 sequence: T1 sequence

Question: What does the source list for “PKA (cAMP-dependent protein kinase), catalytic subunit from bovine heart”?
Answer: in vitro phosphorylation (32P incorporation, autoradiography) [1]: the shorter murine BAD, and BAD mutants containing mutations at the serine at a position corresponding to Ser112 and/or Ser136, were good in vitro substrates for PKA; in vitro phosphorylation (32P incorporation, autoradiography) (GST-BAD S155A): dramatically reduced the phosphorylation of the single mutant GST-BAD S155A; gel-mobility shift after incubation with PKA and ATP [2]: phosphorylation by PKA induced a gel-mobility shift of wild-type BAD; in vitro phosphorylation (32P incorporation, autoradiography) (GST-BAD S136A): the shorter murine BAD, and BAD mutants containing mutations at the serine at a position corresponding to Ser112 and/or Ser136, were good in vitro substrates for PKA; in vitro phosphorylation (32P incorporation, autoradiography) (GST-BAD S112A/S136A): the shorter murine BAD, and BAD mutants containing mutations at the serine at a position corresponding to Ser112 and/or Ser136, were good in vitro substrates for PKA; in vitro phosphorylation (32P incorporation, autoradiography) [3]: abolished phosphorylation of the triple mutant GST-BAD S112A/S135A/S155A; in vitro phosphorylation (32P incorporation, autoradiography) [4]: the shorter murine BAD, and BAD mutants containing mutations at the serine at a position corresponding to Ser112 and/or Ser136, were good in vitro substrates for PKA
